Publication PMC9499943 (Nature Communications, 2022)

Legend:
Assay in all cases: BLI
Conditions in all cases: both partners purified
[1] = molecular target: His-tagged RBD (RBD-His) protein of SARS-CoV-2 (SARS-CoV-2, wild type (Wuhan-Hu-1 …, UniProt P0DTC2))
[2] = molecular target: His-tagged RBD (RBD-His) protein of SARS-CoV-2 (SARS-CoV-2, wild type (Wuhan-Hu-1 …, UniProt P0DTC2)); remark: listed apart in the source
[3] = molecular target: Fc-tagged wild-type RBD (RBD-Fc) (SARS-CoV-2, UniProt P0DTC2)

B1: CoV2-06 (antibody, V domains shown)
VH: QVELQESGPGLVKPSGTLSLTCAVSGGSISSNNWWTWVRQPPGKGLEWIGEIHHSGGTNYNPSLKSRVTMSVDKSKNQFSLNLYSVTAADTAVYYCTRDRAGGTYSGFDFWGQGTLVTVSS
VL: QAVVTQPASVSGSPGQSITISCTGTSSDVGGYNYVSWYQQHPGKAPKLMIYDVSNRPSGVSNRFSGSKSGNTASLTISGLQAEDEADYYCSSYTSSSTVVFGGGTKVTVL
- Kd [1]: 4.14 nM
- koff [1]: 0.000695 s⁻¹
- kon [1]: 168000 M⁻¹ s⁻¹

B2: CoV2-14 (antibody, V domains shown)
VH: EVQLQQSGPGLVKPSQTLSLTCAISGDSVSSNSAAWNWIRQSPSRGLEWLGRTYYRSKWYNDYAVSVKSRITINPDTSKNQFSLQLNSVTPEDTAVYYCAREEQQLVHDYYYYGMDVWGQGTMVTVSS
VL: QAVVTQPASVSGSPGQSITISCTGTSSDIGAYNYISWYQQHPGKAPKLIIYEVSNRPSGISYRFSGSKSGNTASLTISGLQAEDEANYYCSSYAGSISFGGGTKVTVL
- Kd [1]: 1.18 nM
- koff [1]: 0.000895 s⁻¹
- kon [1]: 761000 M⁻¹ s⁻¹

B3: CoV2-06 (antibody, V domains shown)
VH: QVELQESGPGLVKPSGTLSLTCAVSGGSISSNNWWTWVRQPPGKGLEWIGEIHHSGGTNYNPSLKSRVTMSVDKSKNQFSLNLYSVTAADTAVYYCTRDRAGGTYSGFDFWGQGTLVTVSS
VL: QAVVTQPASVSGSPGQSITISCTGTSSDVGGYNYVSWYQQHPGKAPKLMIYDVSNRPSGVSNRFSGSKSGNTASLTISGLQAEDEADYYCSSYTSSSTVVFGGGTKVTVL
- other [2]: 46 fold
- IC50 [3]: 39.8 nM

B4: CoV2-14 (antibody, V domains shown)
VH: EVQLQQSGPGLVKPSQTLSLTCAISGDSVSSNSAAWNWIRQSPSRGLEWLGRTYYRSKWYNDYAVSVKSRITINPDTSKNQFSLQLNSVTPEDTAVYYCAREEQQLVHDYYYYGMDVWGQGTMVTVSS
VL: QAVVTQPASVSGSPGQSITISCTGTSSDIGAYNYISWYQQHPGKAPKLIIYEVSNRPSGISYRFSGSKSGNTASLTISGLQAEDEANYYCSSYAGSISFGGGTKVTVL
- other [2]: 2 fold
- IC50 [3]: 10.6 nM
